The source of these data is patent US20130012693.

Data set [1] deals with beta-NGF (Homo sapiens) (UniProt P01138). In words: filter. To be noted: BndU at Z' (n) positions [n positions 30,37,38,43,44,45,51,52,54 = modified dU]; SB17T-0.002, 37 C; Zorbax resin capture.
The target is the same in data set [2]. As to the kind of experiment: cell_activity. Conditions: PC12 neurite growth, 0.38 nM NGF.

In general, Kd refers to the free concentration of one partner at which half of the binding sites on the other are occupied at equilibrium, for simple one-to-one binding. A word on the IC50: it is the point on the concentration scale where inhibition reaches its midpoint. Low readings indicate inhibition by little substance, high ones a need for much substance.

Chain of beta-NGF (Homo sapiens) (P01138 122-241): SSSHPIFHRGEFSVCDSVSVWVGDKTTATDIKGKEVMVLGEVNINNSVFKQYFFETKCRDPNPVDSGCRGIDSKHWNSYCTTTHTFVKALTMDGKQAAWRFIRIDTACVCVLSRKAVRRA

Turning to “GAGTGACCGTCTGCCTGCAGCGGGACACATGAGGACTTGGGGTTTAGCCGTTGTGGCACAGAGAAGAAACAAGACC [2426-66]”, the dissociation constant (Kd) with beta-NGF (Homo sapiens) [1] came to 5 nM. This sequence returned an IC50 in the data set with beta-NGF (Homo sapiens) [2] (BndU at Z' (n) positions [n positions 30,37,38,43,44,45,51,52,54 = modified dU], 3'-idT) of 2 nM.
The sequence “CATGAGGACTTGGGGTTTAGCCGTTGTG [2426-66-50]” gave an IC50 with beta-NGF (Homo sapiens) [2] (BndU at Z' (n) positions, 3'-idT in cell assays [n positions 3,10,11,16,17,18,24,25,27 = modified dU]) of 1 nM.
